{"source": "patent US20130130922", "about": "“ANALYSIS OF METHYLATION SITES” (Centre for Addiction and Mental Health, published 2013)", "binders": {"B1": {"name": "24-mer duplex oligonucleotide (dsDNA)", "DNA 1": "GCATTACGCGCCAGGTCGTTTCGT", "DNA 2": "TACGAAACGACCTGGCGCGTAATG"}}, "target": "M.SssI Q142A/N370A (UniProt P15840 SEQ:1-386, Q142A,N370A)", "sequence (P15840 whole entry Q142A/N370A)": "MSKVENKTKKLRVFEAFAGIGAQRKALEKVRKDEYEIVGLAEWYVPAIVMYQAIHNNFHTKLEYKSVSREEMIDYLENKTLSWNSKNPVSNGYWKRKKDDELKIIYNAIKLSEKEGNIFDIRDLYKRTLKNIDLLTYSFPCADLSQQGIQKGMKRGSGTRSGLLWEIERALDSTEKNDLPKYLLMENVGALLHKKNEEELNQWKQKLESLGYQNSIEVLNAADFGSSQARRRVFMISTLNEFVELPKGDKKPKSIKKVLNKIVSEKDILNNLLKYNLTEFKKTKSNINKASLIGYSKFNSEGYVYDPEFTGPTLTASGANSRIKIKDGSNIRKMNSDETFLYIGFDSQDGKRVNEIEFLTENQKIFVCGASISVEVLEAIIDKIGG", "assay": "Ado-6-amine 80 uM, no Mg, 37 C; modified deoxycytidine detected by HPLC/ESI-MS", "details": "tags: His6"}
{"binder": "B1", "values": [{"measurement": "binding result", "result": "binds"}]}
